These results are taken from PMC7870652.

The target in test [1] is CDH23 EC1-5/EC3-5 single-bond fusion protein (asymmetric Fc heterodimer with one EC1-2 binding domain) (mouse) (UniProt Q99PF4). Description: single-molecule force spectroscopy (optical tweezers); single-bond EC1-5/EC3-5 proteins, each on a DNA tether on a streptavidin bead in a dual-beam optical trap; 50 µM Ca2+, TBS buffer, room temperature; Bell-Evans fit of most-probable unbinding forces against loading rate, constants extrapolated to zero force.

Test [2] has as its target truncated CDH23 EC1-5 dimer fusion protein (two EC1-5 strands) (mouse). Description: BLI; CDH23 biotinylated on its SNAPtag and immobilised on streptavidin-coated PEG-biotin aminopropylsilane sensors; 10–300 nM PCDH15 in solution; TBS-Tween + Ca^2+ buffer, 2 mM Ca^2+; traces of a drift sensor and of PCDH15 lacking EC1-2 subtracted; dissociation fitted with a single exponential; on-rates measured at 300 nM PCDH15 (effective on-rate); Octet Red384.

In the case of “PCDH15 EC1-5/EC3-5 single-bond fusion protein (asymmetric Fc heterodimer with one EC1-2 binding domain) (from UniProt Q99PJ1-1 27-1943; Q99PJ1-1 27-1943) (Fc fusion)”, the koff (in general, a measure of how fast the partners let go of each other) in test [1] is 1.2 s⁻¹. Regarding “truncated PCDH15 EC1-5 dimer fusion protein (two EC1-5 strands) (Fc fusion)”, the mean lifetime of the connection at zero force in test [2] is 27.1 s.
